Measurements taken from PMC9399855 (2022).

Columns and labels:
[1] = molecular target: T1, hybrid insulin peptide 6.3HIP: insulin B-chain B13-19 joined to ProSAAS 219-225 peptide on I-Ag7 (mouse); experiment: cytokine release
T1 peptide: EALYLVCSVDQDLG

[2] = molecular target: T2, 6.3HIP 2-14 (N-terminal truncation of the 6.3HIP) peptide on I-Ag7 (mouse); experiment: cytokine release
T2 peptide: ALYLVCSVDQDLG

[3] = molecular target: T3, 6.3HIP -1-14 (6.3HIP with a valine added at the N-terminus); RESTORED: the article prints …, which lacks the … (mouse); experiment: cytokine release
T3 peptide: VEALYLVCSVDQDLG

[4] = molecular target: T4, 6.3HIP 10D>R (mutant of B13-19/ProSAAS 219-225) peptide on I-Ag7 (mouse); experiment: cytokine release
T4 peptide: EALYLVCSVRQDLG

[5] = molecular target: T5, 6.3HIP 12D>R (mutant of B13-19/ProSAAS 219-225) peptide on I-Ag7 (mouse); experiment: cytokine release
T5 peptide: EALYLVCSVDQRLG

[6] = molecular target: T6, 6.3HIP 1-11: insulin B-chain B13-19 joined to ProSAAS 219-222 peptide on I-Ag7 (mouse); experiment: multimer staining
T6 peptide: EALYLVCSVDQ

Measured: binding result

B1: PD12-4.4 (TCR)
alpha TRAV5D-4 TRAJ53 CDR3: CAASASGGSNYKLTF
beta TRBV5 CDR3: CASSQDTNTGQLYF
no recognition: [2] | [4]
recognises: all other assays above
